Protein stability index data for 94 variants are collected here from the supplement of paper PMC10567573.

B1: TTC32 (parent)
chain: YSAYIRRCACAASSDESPGSKCSP
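Also: lentivirally expressed fusions sorted by FACS into six bins by GFP to DsRed ratio, PSI derived from sequencing read proportions per bin multiplied by bin number.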

Variants of B1 are the subject of this series. Briefly: protein stability index of a GFP-peptide fusion (GPS, HEK-293T) (PSI 1-6); higher = more stable. As to conditions: c terminus: a fixed tail appended.
Regarding YSAYIRRCACAASSDESPGSKCSY, the protein stability index stood at 1.54.
Consider YSAYIRRCACAASSDESPGSKCSD, for which the protein stability index worked out at 2.
With YSAYIRRCACAASSDESPGSKCSK the figure was 2.03; with YSAYIRRCACAASSDESPGSKCSR, 2.2; with YSAYIRRCACAASSDESPGSKCSF, 1.35.
As to YSAYIRRCACAASSDESPGSKCSC, the protein stability index came out at 4.33.
To QSAYIRRCACAASSDESPGSKCSP belongs 2.56; to ASAYIRRCACAASSDESPGSKCSP, 2.62; to GSAYIRRCACAASSDESPGSKCSP, 2.48.
On to CSAYIRRCACAASSDESPGSKCSP, for which the protein stability index was found to be 2.04.
As for YSAYIRRCNCAASSDESPGSKCSP, the protein stability index is 2.37.
Regarding YSAYIRRCSCAASSDESPGSKCSP, the protein stability index came out at 1.98.
For the variant YSAYYRRCACAASSDESPGSKCSP, the protein stability index worked out at 2.45.
YSAYMRRCACAASSDESPGSKCSP: the protein stability index worked out at 2.29.
Turning to YSAYQRRCACAASSDESPGSKCSP, the protein stability index was 2.09.
YSAYIRRCACDASSDESPGSKCSP: the protein stability index was 1.98.
For the variant YSAYIRRCACTASSDESPGSKCSP, the protein stability index turned out to be 1.94.
In the case of YSAYIRRCACQASSDESPGSKCSP, the protein stability index came out at 2.03.
For the variant YSAYIRRCACFASSDESPGSKCSP, the protein stability index was found to be 2.11.
YSAYIRRCACEASSDESPGSKCSP: the protein stability index stood at 1.87.
On to YSAYIRRCACWASSDESPGSKCSP, for which the protein stability index stood at 2.04.
In the case of YSAYIRRCACYASSDESPGSKCSP, the protein stability index was 2.36.
On to YSAYIRRPACAASSDESPGSKCSP, for which the protein stability index is 3.49.
On to YSAYIRRNACAASSDESPGSKCSP, for which the protein stability index turned out to be 3.41.
As for YSAYIRRTACAASSDESPGSKCSP, the protein stability index was determined as 3.06.
To YSAYIRRDACAASSDESPGSKCSP belongs 3.89.
For the variant YSAYIRRCACAASSYESPGSKCSP, the protein stability index is 2.38.
As to YSAYIRRCACAASSTESPGSKCSP, the protein stability index stood at 2.76.
To YSAYIRRCACAASSVESPGSKCSP belongs 1.51; to YSAYIRRCACAASSWESPGSKCSP, 1.6; to YSAYIRRCACAASSNESPGSKCSP, 1.65.
For the variant YSAYIRRCACAASSCESPGSKCSP, the protein stability index is 2.03.
With YNAYIRRCACAASSDESPGSKCSP the figure was 2.35.
As to YKAYIRRCACAASSDESPGSKCSP, the protein stability index amounted to 1.92.
For the variant YYAYIRRCACAASSDESPGSKCSP, the protein stability index was determined as 1.92.
For the variant YHAYIRRCACAASSDESPGSKCSP, the protein stability index was 4.15.
To YRAYIRRCACAASSDESPGSKCSP belongs 1.82.
As for YWAYIRRCACAASSDESPGSKCSP, the protein stability index turned out to be 1.91.
To YIAYIRRCACAASSDESPGSKCSP belongs 1.58; to YSAYIRRCACAASSDQSPGSKCSP, 2.18.
For YSAYIRRCACAASSDISPGSKCSP, the protein stability index was determined as 1.82.
To YSAYIRRCACAASSDESPGSKCDP belongs 2.46; to YSAYIRRCACAASSDESPGSKCHP, 1.6.
For YSAYIRRCACAASSDESPGSKCMP, the protein stability index came to 1.61.
To YSAYIRRCACAASSDESPGSKCAP belongs 1.87; to YSATIRRCACAASSDESPGSKCSP, 2.24; to YSALIRRCACAASSDESPGSKCSP, 2.45.
Regarding YSAIIRRCACAASSDESPGSKCSP, the protein stability index turned out to be 2.08.
With YSASIRRCACAASSDESPGSKCSP the figure was 2.29; with YSAAIRRCACAASSDESPGSKCSP, 2.01.
Take YSANIRRCACAASSDESPGSKCSP: the protein stability index stood at 2.85.
As to YSAQIRRCACAASSDESPGSKCSP, the protein stability index stood at 2.65.
In the case of YSAYIGRCACAASSDESPGSKCSP, the protein stability index was determined as 2.53.
With YSAYILRCACAASSDESPGSKCSP, the protein stability index stood at 2.07.
Consider YSAYIMRCACAASSDESPGSKCSP, for which the protein stability index is 1.33.
With YSAYISRCACAASSDESPGSKCSP the figure was 2.41; with YSAYIVRCACAASSDESPGSKCSP, 1.74; with YSAYIQRCACAASSDESPGSKCSP, 2.
For the variant YSAYIRRCACAASSDESPGVKCSP, the protein stability index came to 1.79.
For the variant YSAYIRRCACAASSDESPGQKCSP, the protein stability index is 2.21.
In the case of YSAYIRRCACAASSDESPGLKCSP, the protein stability index was determined as 2.15.
With YSAYIRRCACAASSDESPGPKCSP the figure was 1.68.
For the variant YSAYIRRCACAASSDESPGSWCSP, the protein stability index was 2.23.
Take YSAYIRRCACAASSDESPGSRCSP: the protein stability index came out at 1.56.
With YSAYIRRCACAASSDESPGSVCSP the figure was 1.62.
For the variant YSAYIRRCACAASSDESPGSNCSP, the protein stability index came out at 2.11.
YSAYIRRCACAASSDESPGSTCSP: the protein stability index amounted to 1.69.
As to YSAYIRRCACAASSDESPGSGCSP, the protein stability index was 2.02.
To YSAYIRRCACAALSDESPGSKCSP belongs 1.69.
In the case of YSAYIRRCACAARSDESPGSKCSP, the protein stability index came out at 2.21.
In the case of YSAYIRRCACAAISDESPGSKCSP, the protein stability index was determined as 2.
Take YSAYIRRCACAAKSDESPGSKCSP: the protein stability index is 2.28.
With YSAYIRRCACAAPSDESPGSKCSP, the protein stability index came out at 1.89.
On to YSAYIRRCACAAMSDESPGSKCSP, for which the protein stability index worked out at 1.55.
Turning to YSAYIRRCACAAASDESPGSKCSP, the protein stability index turned out to be 2.07.
To YSLYIRRCACAASSDESPGSKCSP belongs 2.18.
Regarding YSQYIRRCACAASSDESPGSKCSP, the protein stability index was found to be 2.91.
On to YSGYIRRCACAASSDESPGSKCSP, for which the protein stability index turned out to be 2.
As to YSRYIRRCACAASSDESPGSKCSP, the protein stability index worked out at 1.89.
For the variant YSPYIRRCACAASSDESPGSKCSP, the protein stability index is 1.69.
Consider YSAYIRICACAASSDESPGSKCSP, for which the protein stability index was determined as 1.42.
For YSAYIRNCACAASSDESPGSKCSP, the protein stability index turned out to be 2.78.
As for YSAYIRDCACAASSDESPGSKCSP, the protein stability index is 3.92.
With YSAYIRRCACAASSDESPHSKCSP, the protein stability index amounted to 2.24.
YSAYIRRCACAASSDESPSSKCSP: the protein stability index was found to be 1.51.
In the case of YSAYIRRCACAASSDESPPSKCSP, the protein stability index stood at 2.31.
Regarding YSAYIRRCACAASSDESPASKCSP, the protein stability index was determined as 2.02.
As for YSAYIRRCACAASSDEGPGSKCSP, the protein stability index was determined as 2.08.
As to YSAYIRRCACAASSDENPGSKCSP, the protein stability index stood at 2.22.
For YSAYIRRCACAASSDERPGSKCSP, the protein stability index was found to be 2.28.
Regarding YSAYIRRCACAASSDEFPGSKCSP, the protein stability index was 1.85.
Regarding YSAYIRRCACAASSDECPGSKCSP, the protein stability index turned out to be 2.29.
With YSAYIRRCACAASSDEMPGSKCSP the figure was 2.2; with YSAYIRRCACAASSDEAPGSKCSP, 2.17.
